Consider one molecule from article PMC10582448, “The Histone Chaperones SET/TAF‐1β and NPM1 Exhibit Conserved Functionality in Nucleosome Remodeling and Histone Eviction in a Cytochrome c‐Dependent Manner”.

In data set [1] the target is SET/TAF-Ibeta (Homo sapiens, UniProt Q01105-2 1-277). Kind of data set: NMR; 10 mM sodium phosphate pH 7.4; NMR: 10 mM sodium phosphate pH 7.4, 1 mM ascorbate, 1 mM TCEP, 5% D2O, 25 C; optical tweezers: 25 mM HEPES, 50 mM KCl, 0.1 mM EDTA, pH 7.5. The settings on record: protein: recombinant; tags: N-terminal 6xHis; chain copies: 2; blunt.
Data set [2] concerns the target histone H3 (Xenopus laevis, UniProt P84233 1-136). Description: NMR; H3 competes with Cc for dsDNA; NMR: 10 mM sodium phosphate pH 7.4, 1 mM ascorbate, 1 mM TCEP, 5% D2O, 25 C; optical tweezers: 25 mM HEPES, 50 mM KCl, 0.1 mM EDTA, pH 7.5. The settings on record: protein: recombinant; blunt.
Data set [3] deals with cytochrome c (Homo sapiens, UniProt P99999 2-105). Description: NMR; reduced Cc 13 uM, dsDNA 26 uM; Met80 signal decreased on dsDNA addition; NMR: 10 mM sodium phosphate pH 7.4, 1 mM ascorbate, 1 mM TCEP, 5% D2O, 25 C; optical tweezers: 25 mM HEPES, 50 mM KCl, 0.1 mM EDTA, pH 7.5. The note with it: protein: recombinant; blunt.
Sequence of cytochrome c (P99999 2-105): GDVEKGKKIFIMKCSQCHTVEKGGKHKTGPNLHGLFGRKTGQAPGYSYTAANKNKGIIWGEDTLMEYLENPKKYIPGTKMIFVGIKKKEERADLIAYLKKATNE

Sequence of SET/TAF-Ibeta (Q01105 other isoform, or with tags, fused parts or gaps): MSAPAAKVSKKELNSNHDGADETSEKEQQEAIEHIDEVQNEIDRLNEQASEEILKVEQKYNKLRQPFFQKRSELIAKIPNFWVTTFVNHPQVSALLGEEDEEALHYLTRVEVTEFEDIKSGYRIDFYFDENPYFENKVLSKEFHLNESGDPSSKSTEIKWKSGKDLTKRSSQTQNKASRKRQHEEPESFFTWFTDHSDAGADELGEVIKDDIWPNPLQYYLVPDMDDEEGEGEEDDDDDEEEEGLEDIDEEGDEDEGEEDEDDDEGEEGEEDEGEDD

B1: 10-mer dsDNA (dsDNA)
DNA 1: TAGCGTAACG
DNA 2: CGTTACGCTA
Turning to B1, the binding result in data set [1] is listed as “no binding”; in data set [2], “binds”; in data set [3] it was “binds”.
